Laboratory results reported in the RNAGym collection of RNA variant scans (doi:10.7554/elife.80360).

B1: CPEB3 Ribozyme (parent)
chain: GGGGGCCACAGCAGAAGCGUUCACGUCGCGGCCCCUGUCAGAUUCUGGUGAAUCUGCGAAUUCUGCUGU

Variants of: B1
Assay: self-cleavage, relative activity (ratio to wild type); higher = more cleavage; co-transcriptional
In the case of GGGGGCCACAGCAGAAGCGUUCACGUCGCGGCCCCUGUCAGAUUCUGGUGAAUCUGGGAUUUCUGCUGU, the self-cleavage is reported as 0.291.
GGGGGCCACAGCAGAAGCGUUCACGUCGCGGCCCCUGUCAGAUUCUGGUGAAUCUGUGAAUUCUGGUGU gave a self-cleavage of 0.317.
For GGGGGCCACAGCAGAAGCGUUCACGUCGCGGCCCCUGUCAGAUUCUGGUGAAUCUGUGAAUUCUGAUGU, the self-cleavage was 0.316.
GGGGGCCACAGCAGAAGCGUUCACGUCGCGGCCCCUGUCAGAUUCUGGUGAAUCUGUGGAUUCUGCUGU showed a self-cleavage of 0.354.
Work on GGGGGCCACAGCAGAAGCGUUCACGUCGCGGCCCCUGUCAGAUUCUGGUGAAUCUGUGUAUUCUGCUGU yielded a self-cleavage of 0.256.
Variant GGGGGCCACAGCAGAAGCGUUCACGUCGCGGCCCCUGUCAGAUUCUGGUGAAUCUGGUAAUUCUGCUGU has a self-cleavage of 0.463.
Variant GGGGGCCACAGCAGAAGCGUUCACGUCGCGGCCCCUGUCAGAUUCUGGUGAAUCUGGAAAUUCUGCUGU has a self-cleavage of 0.377.
With GGGGGCCACAGCAGAAGCGUUCACGUCGCGGCCCCUGUCAGAUUCUGGUGAAUCUGGCAAUUCUGCUGU the self-cleavage was 0.356.
Work on GGGGGCCACAGCAGAAGCGUUCACGUCGCGGCCCCUGUCAGAUUCUGGUGAAUCUGUGACUUCUGCUGU yielded a self-cleavage of 0.372.
With GGGGGCCACAGCAGAAGCGUUCACGUCGCGGCCCCUGUCAGAUUCUGGUGAAUCUGUGAUUUCUGCUGU the self-cleavage was 0.298.
For GGGGGCCACAGCAGAAGCGUUCACGUCGCGGCCCCUGUCAGAUUCUGGUGAAUCUGUGAGUUCUGCUGU, the self-cleavage was 0.39.
For GGGGGCCACAGCAGAAGCGUUCACGUCGCGGCCCCUGUCAGAUUCUGGUGAAUCUGGGAAUUCUCCUGU, the self-cleavage was 0.428.
With GGGGGCCACAGCAGAAGCGUUCACGUCGCGGCCCCUGUCAGAUUCUGGUGAAUCUGGGAAUUCUUCUGU the self-cleavage was 0.254.
Work on GGGGGCCACAGCAGAAGCGUUCACGUCGCGGCCCCUGUCAGAUUCUGGUGAAUCUGGGAAUUCUACUGU yielded a self-cleavage of 0.37.
GGGGGCCACAGCAGAAGCGUUCACGUCGCGGCCCCUGUCAGAUUCUGGUGAAUCUGGGAAUUCUGCGGU showed a self-cleavage of 0.489.
GGGGGCCACAGCAGAAGCGUUCACGUCGCGGCCCCUGUCAGAUUCUGGUGAAUCUGGGAAUUCUGCAGU showed a self-cleavage of 0.325.
GGGGGCCACAGCAGAAGCGUUCACGUCGCGGCCCCUGUCAGAUUCUGGUGAAUCUGGGAAUUCUGCCGU showed a self-cleavage of 0.428.
For GGGGGCCACAGCAGAAGCGUUCACGUCGCGGCCCCUGUCAGAUUCUGGUGAAUCUGUGAAUUCUGCUAU, the self-cleavage was 0.395.
GGGGGCCACAGCAGAAGCGUUCACGUCGCGGCCCCUGUCAGAUUCUGGUGAAUCUGUGAAUUCUGCUUU gave a self-cleavage of 0.416.
For GGGGGCCACAGCAGAAGCGUUCACGUCGCGGCCCCUGUCAGAUUCUGGUGAAUCUGGGAAUUCUGAUGU, the self-cleavage was 0.308.
In the case of GGGGGCCACAGCAGAAGCGUUCACGUCGCGGCCCCUGUCAGAUUCUGGUGAAUCUGUGAAUUCUCCUGU, the self-cleavage is reported as 0.374.
Work on GGGGGCCACAGCAGAAGCGUUCACGUCGCGGCCCCUGUCAGAUUCUGGUGAAUCUGUGAAUUCUACUGU yielded a self-cleavage of 0.357.
In the case of GGGGGCCACAGCAGAAGCGUUCACGUCGCGGCCCCUGUCAGAUUCUGGUGAAUCUGGGAAUUCUGCUGC, the self-cleavage is reported as 0.451.
Work on GGGGGCCACAGCAGAAGCGUUCACGUCGCGGCCCCUGUCAGAUUCUGGUGAAUCUGGGAAUUCUGCUAU yielded a self-cleavage of 0.374.
Variant GGGGGCCACAGCAGAAGCGUUCACGUCGCGGCCCCUGUCAGAUUCUGGUGAAUCUGGGAAUUCUGCUCU has a self-cleavage of 0.388.
Variant GGGGGCCACAGCAGAAGCGUUCACGUCGCGGCCCCUGUCAGAUUCUGGUGAAUCUGGGAAUUAUGCUGU has a self-cleavage of 0.291.
For GGGGGCCACAGCAGAAGCGUUCACGUCGCGGCCCCUGUCAGAUUCUGGUGAAUCUGUAAAUUCUGCUGU, the self-cleavage was 0.289.
GGGGGCCACAGCAGAAGCGUUCACGUCGCGGCCCCUGUCAGAUUCUGGUGAAUCUGUCAAUUCUGCUGU gave a self-cleavage of 0.451.
In the case of GGGGGCCACAGCAGAAGCGUUCACGUCGCGGCCCCUGUCAGAUUCUGGUGAAUCUGUUAAUUCUGCUGU, the self-cleavage is reported as 0.42.
In the case of GGGGGCCACAGCAGAAGCGUUCACGUCGCGGCCCCUGUCAGAUUCUGGUGAAUCUGUGAACUCUGCUGU, the self-cleavage is reported as 0.371.
GGGGGCCACAGCAGAAGCGUUCACGUCGCGGCCCCUGUCAGAUUCUGGUGAAUCUGUGAAUUGUGCUGU showed a self-cleavage of 0.397.
With GGGGGCCACAGCAGAAGCGUUCACGUCGCGGCCCCUGUCAGAUUCUGGUGAAUCUGUGAAUUAUGCUGU the self-cleavage was 0.438.
For GGGGGCCACAGCAGAAGCGUUCACGUCGCGGCCCCUGUCAGAUUCUGGUGAAUCUGGGAAUUCGGCUGU, the self-cleavage was 0.394.
In the case of GGGGGCCACAGCAGAAGCGUUCACGUCGCGGCCCCUGUCAGAUUCUGGUGAAUCUGGGAAUUCCGCUGU, the self-cleavage is reported as 0.38.
With GGGGGCCACAGCAGAAGCGUUCACGUCGCGGCCCCUGUCAGAUUCUGGUGAAUCUGGGAAUUCAGCUGU the self-cleavage was 0.349.
With GGGGGCCACAGCAGAAGCGUUCACGUCGCGGCCCCUGUCAGAUUCUGGUGAAUCUGGGAAUACUGCUGU the self-cleavage was 0.333.
Variant GGGGGCCACAGCAGAAGCGUUCACGUCGCGGCCCCUGUCAGAUUCUGGUGAAUCUGGGAAGUCUGCUGU has a self-cleavage of 0.439.
Work on GGGGGCCACAGCAGAAGCGUUCACGUCGCGGCCCCUGUCAGAUUCUGGUGAAUCUGGGAAAUCUGCUGU yielded a self-cleavage of 0.399.
For GGGGGCCACAGCAGAAGCGUUCACGUCGCGGCCCCUGUCAGAUUCUGGUGAAUCUGGGAACUCUGCUGU, the self-cleavage was 0.377.
